± gives the uncertainty stated by the source.
B1: Histidine--tRNA ligase, cytoplasmic, residues 8 to 45; numbered along this chain, P12081 (parent)
chain: EELVKLQGERVRGLKQQKASAELIEEEVAKLLKLKAQL

Variants of: B1
Test: abundance fitness (aPCA) (normalised: wild type 0, dead -1); higher = more abundant; growth selection in yeast, the domain comes from the species named
Conditions: Homo sapiens

Variant	abundance fitness
EELVKLQGERVRGLKQQKASAELFEEEVAKLLKLKAQL [I24F]	0.069 ± 0.091
EELVKLQGERVRGLKQQKASAELLEEEVAKLLKLKAQL [I24L]	0.03 ± 0.072
EELVKLQGERVRGLKQQKASAELHEEEVAKLLKLKAQL [I24H]	0.169 ± 0.1
EELVKLQGERVRGLKQQKASAELQEEEVAKLLKLKAQL [I24Q]	0.163 ± 0.09
EELVKLQGERVRGLKQQKASAELYEEEVAKLLKLKAQL [I24Y]	0.131 ± 0.18
EELVKLQGERVRGLKQQKASAELTEEEVAKLLKLKAQL [I24T]	-0.012 ± 0.088
EELVKLQGERVRGLKQQKASAELDEEEVAKLLKLKAQL [I24D]	0.055 ± 0.14
EELVKLQGERVRGLKQQKASAELNEEEVAKLLKLKAQL [I24N]	-0.137 ± 0.1
EELVKLQGERVRGLKQQKASAELAEEEVAKLLKLKAQL [I24A]	-0.027 ± 0.078
EELVKLQGERVRGLKQQKASAELMEEEVAKLLKLKAQL [I24M]	-0.03 ± 0.077
EELVKLQGERVRGLKQQKASAELGEEEVAKLLKLKAQL [I24G]	-0.068 ± 0.085
EELVKLQGERVRGLKQQKASAELEEEEVAKLLKLKAQL [I24E]	-0.151 ± 0.15
EELVKLQGERVRGLKQQKASAELVEEEVAKLLKLKAQL [I24V]	-0.035 ± 0.078
EELVKLQGERVRGLKQQKASAELREEEVAKLLKLKAQL [I24R]	-0.184 ± 0.081
EELVKLQGERVRGLKQQKASAELWEEEVAKLLKLKAQL [I24W]	-1.01 ± 0.31
EELVKLQGERVRGLKQQKASAELKEEEVAKLLKLKAQL [I24K]	0 ± 0.09
EELVKLQGERVRGLKQQKASAELSEEEVAKLLKLKAQL [I24S]	-0.171 ± 0.08
EELVKLQGERVRGLKQQKASAELIEEEQAKLLKLKAQL [V28Q]	0.366 ± 0.1
EELVKLQGERVRGLKQQKASAELIEEEPAKLLKLKAQL [V28P]	-0.119 ± 0.1
EELVKLQGERVRGLKQQKASAELIEEEEAKLLKLKAQL [V28E]	0.316 ± 0.13
EELVKLQGERVRGLKQQKASAELIEEEIAKLLKLKAQL [V28I]	-0.303 ± 0.09
EELVKLQGERVRGLKQQKASAELIEEEGAKLLKLKAQL [V28G]	-0.195 ± 0.11

Variant	abundance fitness
EELVKLQGERVRGLKQQKASAELIEEEDAKLLKLKAQL [V28D]	0.152 ± 0.11
EELVKLQGERVRGLKQQKASAELIEEECAKLLKLKAQL [V28C]	-0.076 ± 0.093
EELVKLQGERVRGLKQQKASAELIEEEMAKLLKLKAQL [V28M]	0.06 ± 0.1
EELVKLQGERVRGLKQQKASAELIEEEHAKLLKLKAQL [V28H]	-0.012 ± 0.1
EELVKLQGERVRGLKQQKASAELIEEENAKLLKLKAQL [V28N]	0.081 ± 0.098
EELVKLQGERVRGLKQQKASAELIEEELAKLLKLKAQL [V28L]	-0.271 ± 0.076
EELVKLQGERVRGLKQQKASAELIEEEKAKLLKLKAQL [V28K]	0.107 ± 0.14
EELVKLQGERVRGLKQQKASAELIEEERAKLLKLKAQL [V28R]	-0.027 ± 0.084
EELVKLQGERVRGLKQQKASAELIEEESAKLLKLKAQL [V28S]	0.094 ± 0.08
EELVKLQGERVRGLKQQKASAELIEEEAAKLLKLKAQL [V28A]	0.177 ± 0.095
EELVKLQGERVRGLKQQKASAELIEEEFAKLLKLKAQL [V28F]	-0.378 ± 0.078
EELVKLQGERVRGLKQQKAWAELIEEEVAKLLKLKAQL [S20W]	-1.1 ± 0.1
EELVKLQGERVRGLKQQKAYAELIEEEVAKLLKLKAQL [S20Y]	-0.945 ± 0.17
EELVKLQGERVRGLKQQKASAELIEEWVAKLLKLKAQL [E27W]	-1.11 ± 0.13
EELVKLQGERVRGLKQQKASAELIEEHVAKLLKLKAQL [E27H]	-0.436 ± 0.093
EELVKLQGERVRGLKQQKASAELIEERVAKLLKLKAQL [E27R]	-0.741 ± 0.084
EELVKLQGERVRGLKQQKASAELIEEKVAKLLKLKAQL [E27K]	-0.649 ± 0.15
EELVKLQGERVRGLKQQKASAELIEEIVAKLLKLKAQL [E27I]	-1.47 ± 0.15
EELVKLQGERVRGLKQQKASAELIEETVAKLLKLKAQL [E27T]	-0.798 ± 0.085
EELVKLQGERVRGLKQQKASAELIEENVAKLLKLKAQL [E27N]	-0.079 ± 0.078
EELVKLQGERVRGLKQQKASAELIEEVVAKLLKLKAQL [E27V]	-1.1 ± 0.093
EELVKLQGERVRGLKQQKASAELIEEMVAKLLKLKAQL [E27M]	-0.874 ± 0.16

Variant	abundance fitness
EELVKLQGERVRGLKQQKASAELIEEPVAKLLKLKAQL [E27P]	-0.214 ± 0.091
EELVKLQGERVRGLKQQKASAELIEEAVAKLLKLKAQL [E27A]	-0.108 ± 0.089
EELVKLQGERVRGLKQQKASAELIEESVAKLLKLKAQL [E27S]	-0.291 ± 0.077
EELVKLQGERVRGLKQQKASAEYIEEEVAKLLKLKAQL [L23Y]	-0.358 ± 0.091
EELVKLQGERVRGLKQQKASAETIEEEVAKLLKLKAQL [L23T]	0.071 ± 0.082
EELVKLQGERVRGLKQQKASAERIEEEVAKLLKLKAQL [L23R]	-0.001 ± 0.073
EELVKLQGERVRGLKQQKASAEIIEEEVAKLLKLKAQL [L23I]	0.188 ± 0.12
EELVKLQGERVRGLKQQKASAEHIEEEVAKLLKLKAQL [L23H]	-0.075 ± 0.11
EELVKLQGERVRGLKQQKASAEMIEEEVAKLLKLKAQL [L23M]	0.243 ± 0.13
EELVKLQGERVRGLKQQKASAEGIEEEVAKLLKLKAQL [L23G]	-0.143 ± 0.083
EELVKLQGERVRGLKQQKASAENIEEEVAKLLKLKAQL [L23N]	-0.04 ± 0.11
EELVKLQGERVRGLKQQKASAEVIEEEVAKLLKLKAQL [L23V]	0.2 ± 0.082
EELVKLQGERVRGLKQQKASAEKIEEEVAKLLKLKAQL [L23K]	0.045 ± 0.091
EELVKLQGERVRGLKQQKASAEPIEEEVAKLLKLKAQL [L23P]	-0.004 ± 0.086
EELVKLQGERVRGLKQQKASAEAIEEEVAKLLKLKAQL [L23A]	-0.037 ± 0.073
EELVKLQGERVRGLKQQKASAEDIEEEVAKLLKLKAQL [L23D]	-0.072 ± 0.12
EELVKLQGERVRGLKQQKASAESIEEEVAKLLKLKAQL [L23S]	-0.266 ± 0.085
EELVKLQGERVRGLKQQKASAEQIEEEVAKLLKLKAQL [L23Q]	0.262 ± 0.1
EELVKLQGERVRGLKQQKASAELIIEEVAKLLKLKAQL [E25I]	-0.621 ± 0.13
EELVKLQGERVRGLKQQKASAELIDEEVAKLLKLKAQL [E25D]	0.012 ± 0.097
EELVKLQGERVRGLKQQKASAELIWEEVAKLLKLKAQL [E25W]	-0.586 ± 0.11

— the Human Domainome abundance scans (Beltran et al. 2025)
